The record followed here is paper PMC6336718.

The target in assay [1] is Bacillus anthracis zinc uptake regulator protein (BaZur) (Bacillus anthracis (Sterne 34F2)). The assay can be described thus: native gel or EMSA. Background: Mobility shift assays separate free from complexed probe on a gel.
Assay [2] shares this target. The experiment in a line: SEC; […] (50 mM Tris HCl pH 8.0, 150 mM NaCl, 5% glycerol), […].

What is called stoichiometry N is the number of molecules, sites or subunits per partner or assembly. “Bacillus anthracis zinc uptake regulator protein (BaZur) (natural protein)”: the stoichiometry N in assay [1] and in assay [2] was 2 in each case.
